Measurements reported in the supplement of paper PMC9112550, “Optimization of the antimicrobial peptide Bac7 by deep mutational scanning” (BMC Biology, 2022).

Test system: Escherichia coli TOP10
Assay: shrunken log2 fold change of peptide-encoding DNA abundance (4.5 h post-induction vs induction); higher = less antimicrobial activity (less host growth inhibition)
Conditions: time post-induction: 4.5 h; library: site-saturation at positions 5, 18, 19, 20
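Also: peptides expressed intracellularly from a pBAD plasmid library in pooled LB shake-flask culture, induced with 0.3% L-arabinose, DNA abundance read by NGS, three biological replicates, DESeq2 with apeglm shrinkage.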

| Sequence | shrunken log2 fold change |
| --- | --- |
| RRIRMRPPRLPRPRPRPIMHPRP | -0.128 |
| RRIRTRPPRLPRPRPRPHSNPRP | -0.489 |
| RRIRVRPPRLPRPRPRPCDCPRP | 0.00675 |
| RRIRERPPRLPRPRPRPEMQPRP | -0.0367 |
| RRIRPRPPRLPRPRPRPWCEPRP | -0.0374 |
| RRIRERPPRLPRPRPRPTHGPRP | 0.0992 |
| RRIRTRPPRLPRPRPRPVWAPRP | 0.237 |
| RRIRMRPPRLPRPRPRPGTMPRP | -0.115 |
| RRIRWRPPRLPRPRPRPFRSPRP | -0.128 |
| RRIRKRPPRLPRPRPRPQQRPRP | 0.0562 |
| RRIRPRPPRLPRPRPRPEQYPRP | -0.226 |
| RRIRGRPPRLPRPRPRPVRMPRP | 0.963 |
| RRIRKRPPRLPRPRPRPTEWPRP | 0.0407 |
| RRIRFRPPRLPRPRPRPKNCPRP | 1.35 |
| RRIRNRPPRLPRPRPRPEVLPRP | -0.212 |
| RRIRQRPPRLPRPRPRPNIHPRP | -0.619 |
| RRIRERPPRLPRPRPRPTECPRP | -0.00173 |
| RRIRQRPPRLPRPRPRPYCLPRP | -0.423 |
| RRIRVRPPRLPRPRPRPGVLPRP | 0.0138 |
| RRIRKRPPRLPRPRPRPTVIPRP | -0.15 |
| RRIRNRPPRLPRPRPRPQCWPRP | 0.057 |
| RRIRLRPPRLPRPRPRPQYCPRP | 0.273 |
| RRIRPRPPRLPRPRPRPDHEPRP | 0.0217 |
| RRIRTRPPRLPRPRPRPLNHPRP | -0.204 |
| RRIRDRPPRLPRPRPRPKAHPRP | 0.0408 |

| Sequence | shrunken log2 fold change |
| --- | --- |
| RRIRNRPPRLPRPRPRPTAIPRP | -0.072 |
| RRIRNRPPRLPRPRPRPNLHPRP | -0.728 |
| RRIRDRPPRLPRPRPRPDSLPRP | 0.0462 |
| RRIRPRPPRLPRPRPRPRHYPRP | 0.101 |
| RRIRVRPPRLPRPRPRPNHWPRP | 0.203 |
| RRIRQRPPRLPRPRPRPCWMPRP | -0.408 |
| RRIRIRPPRLPRPRPRPTDFPRP | -0.109 |
| RRIRRRPPRLPRPRPRPKVSPRP | 0.267 |
| RRIRWRPPRLPRPRPRPWVKPRP | -0.00207 |
| RRIRWRPPRLPRPRPRPPSNPRP | 0.133 |
| RRIRARPPRLPRPRPRPDGEPRP | 0.209 |
| RRIRRRPPRLPRPRPRPCNVPRP | 0.0391 |
| RRIRSRPPRLPRPRPRPMLCPRP | -0.121 |
| RRIRPRPPRLPRPRPRPPQHPRP | 0.485 |
| RRIRQRPPRLPRPRPRPKFWPRP | 0.104 |
| RRIRERPPRLPRPRPRPFAAPRP | 0.229 |
| RRIRKRPPRLPRPRPRPIHIPRP | -0.39 |
| RRIRGRPPRLPRPRPRPHSCPRP | 0.153 |
| RRIRTRPPRLPRPRPRPFSDPRP | -0.399 |
| RRIRWRPPRLPRPRPRPHMGPRP | 0.0771 |
| RRIRNRPPRLPRPRPRPTVQPRP | -0.179 |
| RRIRGRPPRLPRPRPRPVHKPRP | 0.518 |
| RRIRDRPPRLPRPRPRPHTYPRP | -0.163 |
| RRIRHRPPRLPRPRPRPALPPRP | 0.0229 |
| RRIRPRPPRLPRPRPRPTVWPRP | 0.747 |

| Sequence | shrunken log2 fold change |
| --- | --- |
| RRIRARPPRLPRPRPRPWFPPRP | -0.0966 |
| RRIRWRPPRLPRPRPRPTAFPRP | 0.276 |
| RRIRIRPPRLPRPRPRPHDIPRP | -0.146 |
| RRIRNRPPRLPRPRPRPFNKPRP | -0.72 |
| RRIRDRPPRLPRPRPRPQKGPRP | 0.00967 |
| RRIRNRPPRLPRPRPRPDLQPRP | -0.0156 |
| RRIRRRPPRLPRPRPRPYVGPRP | -0.00208 |
| RRIRYRPPRLPRPRPRPFTCPRP | -0.103 |
| RRIRIRPPRLPRPRPRPNVVPRP | -0.508 |
| RRIRVRPPRLPRPRPRPWEGPRP | 0.0112 |
| RRIRGRPPRLPRPRPRPDPMPRP | 0.743 |
| RRIRARPPRLPRPRPRPHQAPRP | -0.0279 |
| RRIRRRPPRLPRPRPRPRENPRP | 0.135 |
| RRIRLRPPRLPRPRPRPFGMPRP | -0.205 |
| RRIRSRPPRLPRPRPRPHDKPRP | -0.214 |
| RRIRTRPPRLPRPRPRPPIWPRP | 0.477 |
| RRIRWRPPRLPRPRPRPRKCPRP | 0.4 |
| RRIRPRPPRLPRPRPRPLNYPRP | -0.615 |
| RRIRSRPPRLPRPRPRPMCPPRP | -0.0743 |
| RRIRRRPPRLPRPRPRPPGHPRP | 0.507 |
| RRIRNRPPRLPRPRPRPTCHPRP | -0.643 |
| RRIRVRPPRLPRPRPRPGFQPRP | 0.302 |
| RRIRKRPPRLPRPRPRPYTNPRP | -0.21 |
| RRIRFRPPRLPRPRPRPHFFPRP | -0.053 |
| RRIRGRPPRLPRPRPRPYDAPRP | -0.317 |

| Sequence | shrunken log2 fold change |
| --- | --- |
| RRIRLRPPRLPRPRPRPTAEPRP | 0.16 |
| RRIRIRPPRLPRPRPRPYQTPRP | -0.0792 |
| RRIRCRPPRLPRPRPRPRVEPRP | 0.0473 |
| RRIRDRPPRLPRPRPRPFMVPRP | 0.00751 |
| RRIRARPPRLPRPRPRPEFFPRP | 0.33 |
| RRIRMRPPRLPRPRPRPADIPRP | 0.067 |
| RRIRPRPPRLPRPRPRPCMAPRP | -0.151 |
| RRIRQRPPRLPRPRPRPVSTPRP | -0.0279 |
| RRIRDRPPRLPRPRPRPGFFPRP | 0.345 |
| RRIRSRPPRLPRPRPRPHEFPRP | -0.315 |
| RRIRNRPPRLPRPRPRPEAVPRP | 0.0335 |
| RRIRARPPRLPRPRPRPLWQPRP | 0.136 |
| RRIRFRPPRLPRPRPRPCDRPRP | -0.179 |
| RRIRMRPPRLPRPRPRPRYMPRP | -0.212 |
| RRIRGRPPRLPRPRPRPDHCPRP | 0.0254 |
| RRIRVRPPRLPRPRPRPPFLPRP | 1.11 |
| RRIRFRPPRLPRPRPRPPHLPRP | -0.0216 |
| RRIRWRPPRLPRPRPRPYSGPRP | -0.105 |
| RRIRERPPRLPRPRPRPGPVPRP | 0.137 |
| RRIRCRPPRLPRPRPRPVFVPRP | -0.136 |
| RRIRARPPRLPRPRPRPVPIPRP | 0.0735 |
| RRIRMRPPRLPRPRPRPHKGPRP | 0.034 |
| RRIRPRPPRLPRPRPRPCRDPRP | 1.11 |
| RRIRNRPPRLPRPRPRPQNKPRP | -0.666 |
| RRIRERPPRLPRPRPRPGTNPRP | -0.361 |

| Sequence | shrunken log2 fold change |
| --- | --- |
| RRIRWRPPRLPRPRPRPDRHPRP | -0.157 |
| RRIRMRPPRLPRPRPRPPPHPRP | 1.62 |
| RRIRCRPPRLPRPRPRPKQYPRP | -0.629 |
| RRIRERPPRLPRPRPRPHFQPRP | 0.0177 |
| RRIRHRPPRLPRPRPRPSNNPRP | -0.549 |
| RRIRKRPPRLPRPRPRPHFDPRP | 0.275 |
| RRIRVRPPRLPRPRPRPQFHPRP | -0.186 |
| RRIRTRPPRLPRPRPRPKREPRP | 0.319 |
| RRIRTRPPRLPRPRPRPFMNPRP | -0.787 |
| RRIRCRPPRLPRPRPRPCKHPRP | -0.339 |
| RRIRPRPPRLPRPRPRPGTMPRP | -0.133 |
| RRIRCRPPRLPRPRPRPEHKPRP | -0.221 |
| RRIRHRPPRLPRPRPRPLFAPRP | 0.107 |
| RRIRPRPPRLPRPRPRPNESPRP | -0.00438 |
| RRIRFRPPRLPRPRPRPKGNPRP | -0.047 |
| RRIRDRPPRLPRPRPRPESPPRP | 0.000713 |
| RRIRWRPPRLPRPRPRPMHDPRP | 0.229 |
| RRIRTRPPRLPRPRPRPISIPRP | -0.477 |
| RRIRERPPRLPRPRPRPAIVPRP | 0.00833 |
| RRIRPRPPRLPRPRPRPCLPPRP | 0.0296 |
| RRIRYRPPRLPRPRPRPLRFPRP | -0.28 |
| RRIRTRPPRLPRPRPRPRQIPRP | 0.0896 |
| RRIRDRPPRLPRPRPRPADVPRP | 0.384 |
| RRIRHRPPRLPRPRPRPDPRPRP | 0.0959 |
| RRIRRRPPRLPRPRPRPSYFPRP | -0.395 |
